In publication PMC4026322 one finds localisation_or_trafficking data, which are given here for one protein.

This data set is described as follows: immunofluorescence in HEK293 cells (data not shown). Particulars: glycan lost; control: wild type.

B1: ABCC6: N15D (protein)
parent chain: MAAPAEPCAGQGVWNQTEPEPAATSLLSLCFLRTAGVWVPPMYLWVLGPIYLLFIHHHGRGYLRMSPLFKAKMVLGFALIVLCTSSVAVALWKIQQGTPEAPEFLIHPTVWLTTMSFAVFLIHTERKKGVQSSGVLFGYWLLCFVLPATNAAQQASGAGFQSDPVRHLSTYLCLSLVVAQFVLSCLADQPPFFPEDPQQSNPCPETGAAFPSKATFWWVSGLVWRGYRRPLRPKDLWSLGRENSSEELVSRLEKEWMRNRSAARRHNKAIAFKRKGGSGMKAPETEPFLRQEGSQWRPLLKAIWQVFHSTFLLGTLSLIISDVFRFTVPKLLSLFLEFIGDPKPPAWKGYLLAVLMFLSACLQTLFEQQNMYRLKVLQMRLRSAITGLVYRKVLALSSGSRKASAVGDVVNLVSVDVQRLTESVLYLNGLWLPLVWIVVCFVYLWQLLGPSALTAIAVFLSLLPLNFFISKKRNHHQEEQMRQKDSRARLTSSILRNSKTIKFHGWEGAFLDRVLGIRGQELGALRTSGLLFSVSLVSFQVSTFLVALVVFAVHTLVAENAMNAEKAFVTLTVLNILNKAQAFLPFSIHSLVQARVSFDRLVTFLCLEEVDPGVVDSSSSGSAAGKDCITIHSATFAWSQESPPCLHRINLTVPQGCLLAVVGPVGAGKSSLLSALLGELSKVEGFVSIEGAVAYVPQEAWVQNTSVVENVCFGQELDPPWLERVLEACALQPDVDSFPEGIHTSIGEQGMNLSGGQKQRLSLARAVYRKAAVYLLDDPLAALDAHVGQHVFNQVIGPGGLLQGTTRILVTHALHILPQADWIIVLANGAIAEMGSYQELLQRKGALMCLLDQARQPGDRGEGETEPGTSTKDPRGTSAGRRPELRRERSIKSVPEKDRTTSEAQTEVPLDDPDRAGWPAGKDSIQYGRVKATVHLAYLRAVGTPLCLYALFLFLCQQVASFCRGYWLSLWADDPAVGGQQTQAALRGGIFGLLGCLQAIGLFASMAAVLLGGARASRLLFQRLLWDVVRSPISFFERTPIGHLLNRFSKETDTVDVDIPDKLRSLLMYAFGLLEVSLVVAVATPLATVAILPLFLLYAGFQSLYVVSSCQLRRLESASYSSVCSHMAETFQGSTVVRAFRTQAPFVAQNNARVDESQRISFPRLVADRWLAANVELLGNGLVFAAATCAVLSKAHLSAGLVGFSVSAALQVTQTLQWVVRNWTDLENSIVSVERMQDYAWTPKEAPWRLPTCAAQPPWPQGGQIEFRDFGLRYRPELPLAVQGVSFKIHAGEKVGIVGRTGAGKSSLASGLLRLQEAAEGGIWIDGVPIAHVGLHTLRSRISIIPQDPILFPGSLRMNLDLLQEHSDEAIWAALETVQLKALVASLPGQLQYKCADRGEDLSVGQKQLLCLARALLRKTQILILDEATAAVDPGTELQMQAMLGSWFAQCTVLLIAHRLRSVMDCARVLVMDKGQVAESGSPAQLLAQKGLFYRLAQESGLV
B1: the localisation_or_trafficking result was “no change”.
